What was measured:
[1] = target: T1, hemagglutinin (HA) of A/Anhui/1/2005 (H5N1) virus (Influenza A virus A/Anhui/1/2005 (H5N1), UniProt Q1WDM0); assay: ELISA; conditions: one partner purified
[2] = target: T1, hemagglutinin (HA) of A/Anhui/1/2005 …; assay: immunostaining of cells or tissue; conditions: one partner purified
[3] = target: T2, rHA2 of AH/1/05 virus (Influenza A virus A/Anhui/1/2005 (H5N1), UniProt Q1WDM0, strain); assay: immunostaining of cells or tissue; conditions: one partner purified
T2 construct: source: SF-9 cells infected with recombinant baculovirus (pAcUW51), on fixed cells

[4] = target: T3, rHA1 of AH/1/05 virus (Influenza A virus A/Anhui/1/2005 (H5N1), UniProt Q1WDM0, strain); assay: immunostaining of cells or tissue; conditions: one partner purified
T3 construct: source: SF-9 cells infected with recombinant baculovirus (pAcUW51), on fixed cells

[5] = target: T4, rHA of AH/1/05 virus (full length HA) (Influenza A virus A/Anhui/1/2005 (H5N1), UniProt Q1WDM0); assay: immunostaining of cells or tissue; conditions: one partner purified
T4 construct: source: SF-9 cells infected with recombinant baculovirus (pAcUW51), on fixed cells

[6] = target: rHA of clade 0 H5N1 virus A/HongKong/156/97 (Influenza A virus A/Hong Kong/156/1997 …, UniProt O56140); assay: ELISA

B1: AVFluFab03 (Fab, V domains shown)
VH: LESGGGLVQPGGSLRVSCTNSGFTFSDYAMSWVRQAPGKGLEWVSAISGNGGSSTYYADSVKGRFTISRDNSKNTMYLQMNSLRAEDTAVYYCVRDDSYDGGGQYGLHNWFDSWGQGTLVTV
VL: ELTQPPSVSGAPGQRVTISCTGSSSNIGAGYDVHWYQQLPGTAPKLLIYGNSNRPSGVPDRFSGSKSGTSASLAITGLQAEDEADYYCQSYDSSLVVFGGGTKLTVL
notes: also called Fab clone representing 25 of the 43 selected Fab clones; source: phagemid vector pComb3H, crude Fab antibody preparations
binding result [1]: binds

B2: AVFluIgG03 (antibody, V domains shown)
VH: LESGGGLVQPGGSLRVSCTNSGFTFSDYAMSWVRQAPGKGLEWVSAISGNGGSSTYYADSVKGRFTISRDNSKNTMYLQMNSLRAEDTAVYYCVRDDSYDGGGQYGLHNWFDSWGQGTLVTV
VL: ELTQPPSVSGAPGQRVTISCTGSSSNIGAGYDVHWYQQLPGTAPKLLIYGNSNRPSGVPDRFSGSKSGTSASLAITGLQAEDEADYYCQSYDSSLVVFGGGTKLTVL
notes: also called rhAb AVFluIgG03; AVFluIg03; source: SF9 cells, purified on a Protein A column
binding result [2]: binds | binding result [3]: no binding | binding result [4]: binds | binding result [5]: binds | binding result [6]: no binding

Reference: article PMC2674214 (PLoS ONE, 2009)
